Measurements published in PMC12546588 (Nature Communications, 2025).

Assays:
[1] = target: human TRPC3 channel (hTRPC3), WT full length, tetramer in nanodiscs (human, UniProt Q13507); test: cryo-EM structure
cryo-EM structure = target: the molecule itself; test: cryo-EM structure

B1: Nanobody 1-25 (VHH)
VHH: QVQLQESGGGSVQSGGSLRLSCAASGDKNYYMGWFRQAPGKEREGVAAIKSDGETRYADSSVTGRFTISQDNAKKTLYLQMTSLKPEDTAMYYCAADRYIGTRWKYVRPEDYSYWGQGTQVTVSS
- stoichiometry N [1]: 4 nanobody molecules per hTRPC3 tetramer

B2: Nanobody 3-37 (VHH)
VHH: QVQLQESGGGSVQSGGSLRLSCAASGYTYSRSCLGWFRQAPGKERERVATIDSDGSTSYADSVKGRFTISQDNAKNTLYLQMNSLKSEDTAMYYCASKYGSRCQNSLGYMYRGQGTQVTVSS
- stoichiometry N [1]: 2 nanobody molecules per hTRPC3 tetramer

B3: human TRPC3 channel (hTRPC3), WT full length, tetramer in nanodiscs (natural protein, UniProt Q13507 86-921, looked up)
chain: MREKGRRQAVRGPAFMFNDRGTSLTAEEERFLDAAEYGNIPVVRKMLEESKTLNVNCVDYMGQNALQLAVGNEHLEVTELLLKKENLARIGDALLLAISKGYVRIVEAILNHPGFAASKRLTLSPCEQELQDDDFYAYDEDGTRFSPDITPIILAAHCQKYEVVHMLLMKGARIERPHDYFCKCGDCMEKQRHDSFSHSRSRINAYKGLASPAYLSLSSEDPVLTALELSNELAKLANIEKEFKNDYRKLSMQCKDFVVGVLDLCRDSEEVEAILNGDLESAEPLEVHRHKASLSRVKLAIKYEVKKFVAHPNCQQQLLTIWYENLSGLREQTIAIKCLVVLVVALGLPFLAIGYWIAPCSRLGKILRSPFMKFVAHAASFIIFLGLLVFNASDRFEGITTLPNITVTDYPKQIFRVKTTQFTWTEMLIMVWVLGMMWSECKELWLEGPREYILQLWNVLDFGMLSIFIAAFTARFLAFLQATKAQQYVDSYVQESDLSEVTLPPEIQYFTYARDKWLPSDPQIISEGLYAIAVVLSFSRIAYILPANESFGPLQISLGRTVKDIFKFMVLFIMVFFAFMIGMFILYSYYLGAKVNAAFTTVEESFKTLFWSIFGLSEVTSVVLKYDHKFIENIGYVLYGIYNVTMVVVLLNMLIAMINSSYQEIEDDSDVEWKFARSKLWLSYFDDGKTLPPPFSLVPSPKSFVYFIMRIVNFPKCRRRRLQKDIEMGMGNSKSRLNLFTQSNSRVFESHSFNSILNQPTRYQQIMKRLIKRYVLKAQVDKENDEVNEGELKEIKQDISSLRYELLEDKSQATEELAILIHKLSEKLNPSMLRCE
- stoichiometry N (cryo-EM structure): 4 subunits

B4: Nanobody 1-94 (VHH)
VHH: QVQLQESGGGSVQSGGSLRLSCAASGYTYSYSGYCMGWFRQAPGKEREGVATIDGAGNTKYADSVKGRFTISRDNAKKTLYLQMNSLKPEDTAMYYCAARVYSYSSDVDCRPSFTTRFPYSGQGTQVTV
- stoichiometry N [1]: 4 nanobody molecules per hTRPC3 tetramer
